Measured values as given in article PMC10786919, “Design-rules for stapled peptides with in vivo activity and their application to Mdm2/X antagonists” (Nature Communications, 2024).
Positions of bridges follow the written chain, without caps; N, C: chain ends. Non-standard residues stand in square brackets, D forms with d. Primed or numbered codes have the meaning given here. Trp(6-Cl) = N[C@@H](Cc1c[nH]c2cc(Cl)ccc12)C(=O)O; Lys(N3) = [N-]=[N+]=NCCCC[C@H](N)C(=O)O; R8 = C=CCCCCCC[C@@](C)(N)C(=O)O; S5 = C=CCCC[C@](C)(N)C(=O)O; Cba′ = not defined here; Aib = CC(C)(N)C(=O)O; βAla = NCCC(=O)O

Legend:
Assay in all cases: fluorescence polarisation; competitive fluorescence anisotropy: unlabelled peptide titrated against 250 nM Mdm2 (1-125) with 50 nM FAM-labelled 12/1 peptide (FAM-…-NH2); PBS pH 7.4, 0.001% Tween-20; apparent Kd, geometric means
Conditions in all cases: both partners purified
human Mdm2 1-125 [1] = target: T1, human Mdm2 1-125 (human)
T1 construct: Mdm2, human, residues 1-125; the stretch after the TEV site ENLYFQG of the fusion protein; source: E. coli BL21 (DE3) Rosetta T1R, purified (Ni-NTA, gel filtration)
T1 sequence (chain, as listed by the source): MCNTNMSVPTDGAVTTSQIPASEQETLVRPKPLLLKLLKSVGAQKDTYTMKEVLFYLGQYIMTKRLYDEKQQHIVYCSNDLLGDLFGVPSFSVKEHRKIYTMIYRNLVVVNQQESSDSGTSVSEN

human Mdm2 1-125 [2] = target: T1, human Mdm2 1-125; remark: listed apart in the source
human Mdm2 1-125 [3] = target: T1, human Mdm2 1-125; remark: listed apart in the source
human Mdm2 1-125 [4] = target: T1, human Mdm2 1-125; remark: listed apart in the source

Ac-[Lys(N3)][βAla]LTA[R8]EYWAQ[Cba′][S5]SAA-NH2 (staple 6-13; reading uncertain) [AZIDE-ATSP-7041 (F3A)]
Kd (human Mdm2 1-125 [1]): 13200 nM

Ac-[Lys(N3)][βAla]LRF[R8]EYWAQ[Cba′][S5]SAA-NH2 (staple 6-13; reading uncertain) [AZIDE-ATSP-7041 (T2R)]
Kd (human Mdm2 1-125 [2]): 30.6 nM

Ac-[Lys(N3)][βAla]LTF[R8]EYWAQ[Cba′][S5]HAA-NH2 (staple 6-13; reading uncertain) [AZIDE-ATSP-7041 (S12H)]
Kd (human Mdm2 1-125 [3]): 4.5 nM

B1: AZIDE-ATSP-7041 (T2hR) (peptide)
chain: KXLXFXEYWAQXXSAA
modifications: homo-Arg (hR) at 2; N-terminal acetyl; Lys(N3) and beta-Ala before residue 1; R8 at 4 and S5 at 11 (olefin staple); Cba at 10; C-terminal amide
Kd (human Mdm2 1-125 [2]): 2.8 nM

Ac-[Lys(N3)][βAla]LTF[R8]EYWAH[Cba′][S5]SAA-NH2 (staple 6-13; reading uncertain) [AZIDE-ATSP-7041 (Q9H)]
Kd (human Mdm2 1-125 [3]): 9.6 nM

Ac-[Lys(N3)][βAla]LTF[R8]EEWAQ[Cba′][S5]SAA-NH2 (staple 6-13; reading uncertain) [AZIDE-ATSP-7041 (Y6E)]
Kd (human Mdm2 1-125 [3]): 5.1 nM

Ac-[Lys(N3)][βAla]LTF[R8]RYWAQ[Cba′][S5]SAA-NH2 (staple 6-13; reading uncertain) [AZIDE-ATSP-7041 (E5R)]
Kd (human Mdm2 1-125 [2]): 33 nM

Ac-[Lys(N3)][βAla]LTF[R8]EYWAQ[Cba′][S5]S[Aib]A-NH2 (staple 6-13; reading uncertain) [AZIDE-ATSP-7041 (A13 TO AIB)]
Kd (human Mdm2 1-125 [3]): 15.2 nM

Ac-[Lys(N3)][βAla]KTF[R8]EYWAQ[Cba′][S5]SAA-NH2 (staple 6-13; reading uncertain) [AZIDE-ATSP-7041 (L1K)]
Kd (human Mdm2 1-125 [1]): 3.8 nM

Ac-[Lys(N3)][βAla]LTF[R8]KYWAQ[Cba′][S5]SAA-NH2 (staple 6-13; reading uncertain) [AZIDE-ATSP-7041 (E5K)]
Kd (human Mdm2 1-125 [1]): 115 nM

Ac-[Lys(N3)][βAla]VTF[R8]VYWVQ[Cba′][S5]SAA-NH2 (staple 6-13; reading uncertain) [AZIDE-ATSP-7041 (L1V, E5V, A8V)]
Kd (human Mdm2 1-125 [4]): 122 nM

Ac-[Lys(N3)][βAla]LKF[R8]EYWAQ[Cba′][S5]SAA-NH2 (staple 6-13; reading uncertain) [AZIDE-ATSP-7041 (T2K)]
Kd (human Mdm2 1-125 [1]): 5.4 nM

B2: AZIDE-ATSP-7041 (A13hR) (peptide)
chain: KXLTFXEYWAQXXSXA
modifications: homo-Arg (hR) at 13; N-terminal acetyl; Lys(N3) and beta-Ala before residue 1; R8 at 4 and S5 at 11 (olefin staple); Cba at 10; C-terminal amide
Kd (human Mdm2 1-125 [2]): 42.5 nM

Ac-[Lys(N3)][βAla]LHF[R8]EYWAQ[Cba′][S5]SAA-NH2 (staple 6-13; reading uncertain) [AZIDE-ATSP-7041 (T2H)]
Kd (human Mdm2 1-125 [3]): 64.2 nM

Ac-[Lys(N3)][βAla]LTF[R8]EYWAR[Cba′][S5]SAA-NH2 (staple 6-13; reading uncertain) [AZIDE-ATSP-7041 (Q9R)]
Kd (human Mdm2 1-125 [2]): 45.9 nM

B3: AZIDE-ATSP-7041 (S12hR) (peptide)
chain: KXLTFXEYWAQXXXAA
modifications: homo-Arg (hR) at 12; N-terminal acetyl; Lys(N3) and beta-Ala before residue 1; R8 at 4 and S5 at 11 (olefin staple); Cba at 10; C-terminal amide
Kd (human Mdm2 1-125 [2]): 5 nM

Ac-[Lys(N3)][βAla]LTF[R8]EYWAQE[S5]SAA-NH2 (staple 6-13) [AZIDE-ATSP-7041 (CBA10E)]
Kd (human Mdm2 1-125 [3]): 312 nM

Ac-[Lys(N3)][βAla]RTF[R8]EYWAQ[Cba′][S5]SAA-NH2 (staple 6-13; reading uncertain) [AZIDE-ATSP-7041 (L1R)]
Kd (human Mdm2 1-125 [2]): 62.9 nM

Ac-[Lys(N3)][βAla]LTE[R8]EYWAQ[Cba′][S5]SAA-NH2 (staple 6-13; reading uncertain) [AZIDE-ATSP-7041 (F3E)]
Kd (human Mdm2 1-125 [3]): 11200 nM

Ac-[Lys(N3)][βAla]LTF[R8]EYEAQ[Cba′][S5]SAA-NH2 (staple 6-13; reading uncertain) [AZIDE-ATSP-7041 (W7E)]
Kd (human Mdm2 1-125 [3]): > 101000 nM

B4: AZIDE-ATSP-7041 (Q9hR) (peptide)
chain: KXLTFXEYWAXXXSAA
modifications: homo-Arg (hR) at 9; N-terminal acetyl; Lys(N3) and beta-Ala before residue 1; R8 at 4 and S5 at 11 (olefin staple); Cba at 10; C-terminal amide
Kd (human Mdm2 1-125 [2]): 28.5 nM

Ac-[Lys(N3)][βAla]LAF[R8]EYWAQ[Cba′][S5]SAA-NH2 (staple 6-13; reading uncertain) [AZIDE-ATSP-7041 (T2A)]
Kd (human Mdm2 1-125 [1]): 80.5 nM

B5: AZIDE-ATSP-7041 (L1hR) (peptide)
chain: KXXTFXEYWAQXXSAA
modifications: homo-Arg (hR) at 1; N-terminal acetyl; Lys(N3) and beta-Ala before residue 1; R8 at 4 and S5 at 11 (olefin staple); Cba at 10; C-terminal amide
Kd (human Mdm2 1-125 [2]): 8.6 nM

B6: AZIDE-ATSP-7041 (E5hR) (peptide)
chain: KXLTFXXYWAQXXSAA
modifications: homo-Arg (hR) at 5; N-terminal acetyl; Lys(N3) and beta-Ala before residue 1; R8 at 4 and S5 at 11 (olefin staple); Cba at 10; C-terminal amide
Kd (human Mdm2 1-125 [2]): 35.5 nM

Ac-[Lys(N3)][βAla]LTF[R8]EYWAQ[Cba′][S5]KAA-NH2 (staple 6-13; reading uncertain) [AZIDE-ATSP-7041 (S12K)]
Kd (human Mdm2 1-125 [1]): 39.7 nM

Ac-[Lys(N3)][βAla]HTF[R8]EYWAQ[Cba′][S5]SAA-NH2 (staple 6-13; reading uncertain) [AZIDE-ATSP-7041 (L1H)]
Kd (human Mdm2 1-125 [3]): 0.7 nM

Ac-[Lys(N3)][βAla]LEF[R8]EYWAQ[Cba′][S5]SAA-NH2 (staple 6-13; reading uncertain) [AZIDE-ATSP-7041 (T2E)]
Kd (human Mdm2 1-125 [3]): 42.4 nM

Ac-[Lys(N3)][βAla]LTF[R8]EYWRQ[Cba′][S5]SAA-NH2 (staple 6-13; reading uncertain) [AZIDE-ATSP-7041 (A8R)]
Kd (human Mdm2 1-125 [2]): 69.4 nM

Ac-[Lys(N3)][βAla]LTF[R8]EYWAE[Cba′][S5]SAA-NH2 (staple 6-13; reading uncertain) [AZIDE-ATSP-7041 (Q9E)]
Kd (human Mdm2 1-125 [3]): 34.6 nM

B7: AZIDE-ATSP-7041 (A14hR) (peptide)
chain: KXLTFXEYWAQXXSAX
modifications: homo-Arg (hR) at 14; N-terminal acetyl; Lys(N3) and beta-Ala before residue 1; R8 at 4 and S5 at 11 (olefin staple); Cba at 10; C-terminal amide
Kd (human Mdm2 1-125 [2]): 8.6 nM

Ac-[Lys(N3)][βAla][dL]TF[R8]AY[Trp(6-Cl)]AA[Cba′][S5]S[dA]A-NH2 (staple 6-13; reading uncertain) [AZIDE-ATSP-7041 (L1 TO D-LEU, E5A, Q9A, W7 TO 6-CLTRP, A13 TO D-ALA)]
Kd (human Mdm2 1-125 [4]): 16.9 nM

Ac-[Lys(N3)][βAla]LTF[R8]EYWEQ[Cba′][S5]SAA-NH2 (staple 6-13; reading uncertain) [AZIDE-ATSP-7041 (A8E)]
Kd (human Mdm2 1-125 [3]): 3.2 nM

Ac-[Lys(N3)][βAla]LTF[R8]EYWAQ[Cba′][S5]RAA-NH2 (staple 6-13; reading uncertain) [AZIDE-ATSP-7041 (S12R)]
Kd (human Mdm2 1-125 [2]): 78.7 nM

Ac-[Lys(N3)][βAla]LTF[R8]HYWAQ[Cba′][S5]SAA-NH2 (staple 6-13; reading uncertain) [AZIDE-ATSP-7041 (E5H)]
Kd (human Mdm2 1-125 [3]): 21.1 nM

Ac-[Lys(N3)][βAla]LTF[R8]EYWKQ[Cba′][S5]SAA-NH2 (staple 6-13; reading uncertain) [AZIDE-ATSP-7041 (A8K)]
Kd (human Mdm2 1-125 [1]): 11.1 nM

Ac-[Lys(N3)][βAla]ATF[R8]EYWAQ[Cba′][S5]SAA-NH2 (staple 6-13; reading uncertain) [AZIDE-ATSP-7041 (L1A)]
Kd (human Mdm2 1-125 [1]): 10.7 nM

Ac-[Lys(N3)][βAla]LTF[R8]EYWAK[Cba′][S5]SAA-NH2 (staple 6-13; reading uncertain) [AZIDE-ATSP-7041 (Q9K)]
Kd (human Mdm2 1-125 [1]): 8.2 nM
